Experimental data: patent US20240255503A1 (UNIVERSITY OF NEWCASTLE UPON TYNE, published 2024)

Columns and labels:
[1] = biological target: T1, L1109V mutant C3b, immobilised on a CM5 sensor chip (human, UniProt P01024 23-667; P01024 749-1663); assay: SPR affinity fit (BIAevaluation), WT full length FH over thiol-coupled L1109V C3b (898 RU) on a CM5 chip, PBST; printed under both panels [Continued]
T1 construct: C3 purified from the serum of a homozygous aHUS patient and converted to C3b on the chip (898 RU, thioester coupled); also called L1109V C3b; variant C3b
T1 sequence (P01024 23-667 limits assumed, chain 1 of 2): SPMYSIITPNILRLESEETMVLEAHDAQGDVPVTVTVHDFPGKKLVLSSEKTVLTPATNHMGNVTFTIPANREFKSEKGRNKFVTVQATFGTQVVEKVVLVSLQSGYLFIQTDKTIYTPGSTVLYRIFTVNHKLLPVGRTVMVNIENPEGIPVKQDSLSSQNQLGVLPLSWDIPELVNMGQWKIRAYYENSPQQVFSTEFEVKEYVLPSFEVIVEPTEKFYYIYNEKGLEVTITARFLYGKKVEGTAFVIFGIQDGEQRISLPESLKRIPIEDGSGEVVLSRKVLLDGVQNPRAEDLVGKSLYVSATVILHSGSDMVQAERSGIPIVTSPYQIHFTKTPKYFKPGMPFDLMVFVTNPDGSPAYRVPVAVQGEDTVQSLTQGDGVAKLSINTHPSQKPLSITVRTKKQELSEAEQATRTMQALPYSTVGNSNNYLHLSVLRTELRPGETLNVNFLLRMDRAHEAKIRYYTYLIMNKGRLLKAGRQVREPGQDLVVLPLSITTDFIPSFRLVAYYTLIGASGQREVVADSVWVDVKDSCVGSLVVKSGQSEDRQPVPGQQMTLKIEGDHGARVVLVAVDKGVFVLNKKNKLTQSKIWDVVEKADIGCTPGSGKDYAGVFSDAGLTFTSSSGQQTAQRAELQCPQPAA
T1 sequence (P01024 749-1663 L1109V limits assumed, chain 2 of 2): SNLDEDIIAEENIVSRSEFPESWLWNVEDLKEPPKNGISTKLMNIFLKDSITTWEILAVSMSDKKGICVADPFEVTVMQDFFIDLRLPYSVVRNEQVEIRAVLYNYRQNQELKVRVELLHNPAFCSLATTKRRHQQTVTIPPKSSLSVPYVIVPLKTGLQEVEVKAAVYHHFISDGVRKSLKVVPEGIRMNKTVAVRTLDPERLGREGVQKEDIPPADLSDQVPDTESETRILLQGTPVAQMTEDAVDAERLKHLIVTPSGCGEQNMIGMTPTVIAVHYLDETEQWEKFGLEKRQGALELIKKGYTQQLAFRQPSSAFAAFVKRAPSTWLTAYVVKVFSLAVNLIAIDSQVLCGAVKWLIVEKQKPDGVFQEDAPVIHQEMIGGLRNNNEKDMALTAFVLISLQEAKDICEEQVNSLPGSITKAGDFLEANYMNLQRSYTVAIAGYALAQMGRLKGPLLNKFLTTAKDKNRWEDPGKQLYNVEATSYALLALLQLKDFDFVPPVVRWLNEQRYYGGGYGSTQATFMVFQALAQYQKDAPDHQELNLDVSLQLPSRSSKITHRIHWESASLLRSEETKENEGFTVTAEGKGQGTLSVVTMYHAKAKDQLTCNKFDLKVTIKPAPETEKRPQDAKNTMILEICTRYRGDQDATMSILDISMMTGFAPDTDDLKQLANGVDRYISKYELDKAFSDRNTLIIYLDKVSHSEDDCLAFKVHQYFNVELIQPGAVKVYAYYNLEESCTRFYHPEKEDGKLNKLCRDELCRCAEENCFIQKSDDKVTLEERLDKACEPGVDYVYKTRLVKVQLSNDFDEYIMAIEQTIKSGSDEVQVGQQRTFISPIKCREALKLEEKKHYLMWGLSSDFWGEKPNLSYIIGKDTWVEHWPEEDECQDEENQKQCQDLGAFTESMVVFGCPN
Excerpt: (§1) Dissociation constants (KD) are given under the graphs showing each concentration vs RU curve labelled with the appropriate variant.

[2] = biological target: T1, L1109V mutant C3b, immobilised on a CM5 …; assay: SPR affinity estimate, FL-FH over thioester-coupled mutant and WT C3b
Excerpt: as §1

[3] = biological target: T2, Human C3b (wild type), immobilised on a CM5 sensor chip (human, UniProt P01024 23-667; P01024 749-1663); assay: SPR affinity estimate (not steady state), FL-FH 250-7.8 nM over thioester-coupled WT C3b
T2 construct: also called WT C3b; WT C3
T2 sequence (P01024 23-667 limits assumed, chain 1 of 2): as the sequence (P01024 23-667 limits assumed, chain 1 of 2) above
T2 sequence (P01024 749-1663 limits assumed, chain 2 of 2): as the sequence (P01024 749-1663 L1109V limits assumed, chain 2 of 2) above, with V361L counted along it
Excerpt: as §1

[4] = biological target: C3b:FH1-4 complex (chip-bound C3b with co-injected WT FH1-4)
[5] = biological target: T3, C3b:FH1-4 complex (chip-bound C3b with co-injected WT FH1-4) (human, UniProt P01024 23-667; P01024 749-1663; P08603 19-263); assay: SPR TMC building, 62.5 nM FI with 125 nM WT FH1-4 over amine-coupled C3b
T3 construct: Composite target for the FI variants in the trimolecular complex (TMC) building assay, made of m1 and m3; FI and FH1-4 were injected together over C3b; also called FH/C3b; FH-1-4/C3b
T3 sequence (P01024 23-667 limits assumed, chain 1 of 2): as the sequence (P01024 23-667 limits assumed, chain 1 of 2) above
T3 sequence (P01024 749-1663 limits assumed, chain 2 of 2): as the sequence (P01024 749-1663 L1109V limits assumed, chain 2 of 2) above, with V361L counted along it

[6] = biological target: T2, Human C3b (wild type), immobilised on a …; assay: SPR steady-state affinity, FH19-20 20-0.156 µM over thioester-coupled WT C3b (899 RU); WT C3b on the chip, not the L1109V mutant
[7] = biological target: T1, L1109V mutant C3b, immobilised on a CM5 …; assay: SPR steady-state affinity, FH19-20 20-0.156 µM over thioester-coupled L1109V C3b (898 RU); fitted KD from the same SPR run on L1109V C3b that the text calls a lack of binding
[8] = biological target: T1, L1109V mutant C3b, immobilised on a CM5 …; assay: SPR steady-state affinity, FH1-4 20-0.156 µM over thioester-coupled L1109V C3b (898 RU)
[9] = biological target: T2, Human C3b (wild type), immobilised on a …; assay: SPR steady-state affinity, FH1-4 20-0.156 µM over thioester-coupled WT C3b (899 RU)
[10] = biological target: T2, Human C3b (wild type), immobilised on a …; assay: SPR steady-state affinity fit (BIAevaluation S200), WT FH1-4 over thiol-coupled WT C3b (899 RU) on a CM5 chip, PBST [Continued]
[11] = biological target: T2, Human C3b (wild type), immobilised on a …; assay: SPR steady-state affinity fit (BIAevaluation S200), WT FH1-4 over C3b immobilised on a CM5 chip
Excerpt: Data was collected at 40 Hz and there was a 120s stabilisation period between each sample being injected.

B1: Full Length Human Complement Factor H (FH) (other)
chain: EDCNELPPRRNTEILTGSWSDQTYPEGTQAIYKCRPGYRSLGNVIMVCRKGEWVALNPLRKCQKRPCGHPGDTPFGTFTLTGGNVFEYGVKAVYTCNEGYQLLGEINYRECDTDGWTNDIPICEVVKCLPVTAPENGKIVSSAMEPDREYHFGQAVRFVCNSGYKIEGDEEMHCSDDGFWSKEKPKCVEISCKSPDVINGSPISQKIIYKENERFQYKCNMGYEYSERGDAVCTESGWRPLPSCEEKSCDNPYIPNGDYSPLRIKHRTGDEITYQCRNGFYPATRGNTAKCTSTGWIPAPRCTLKPCDYPDIKHGGLYHENMRRPYFPVAVGKYYSYYCDEHFETPSGSYWDHIHCTQDGWSPAVPCLRKCYFPYLENGYNQNYGRKFVQGKSIDVACHPGYALPKAQTTVTCMENGWSPTPRCIRVKTCSKSSIDIENGFISESQYTYALKEKAKYQCKLGYVTADGETSGSITCGKDGWSAQPTCIKSCDIPVFMNARTKNDFTWFKLNDTLDYECHDGYESNTGSTTGSIVCGYNGWSDLPICYERECELPKIDVHLVPDRKKDQYKVGEVLKFSCKPGFTIVGPNSVQCYHFGLSPDLPICKEQVQSCGPPPELLNGNVKEKTKEEYGHSEVVEYYCNPRFLMKGPNKIQCVDGEWTTLPVCIVEESTCGDIPELEHGWAQLSSPPYYYGDSVEFNCSESFTMIGHRSITCIHGVWTQLPQCVAIDKLKKCKSSNLIILEEHLKNKKEFDHNSNIRYRCRGKEGWIHTVCINGRWDPEVNCSMAQIQLCPPPPQIPNSHNMTTTLNYRDGEKVSVLCQENYLIQEGEEITCKDGRWQSIPLCVEKIPCSQPPQIEHGTINSSRSSQESYAHGTKLSYTCEGGFRISEENETTCYMGKWSSPPQCEGLPCKSPPEISHGVVAHMSDSYQYGEEVTYKCFEGFGIDGPAIAKCLGEKWSHPPSCIKTDCLSLPSFENAIPMGEKKDVYKAGEQVTYTCATYYKMDGASNVTCINSRWTGRPTCRDTSCVNPPTVQNAYIVSRQMSKYPSGERVRYQCRSPYEMFGDEEVMCLNGNWTEPPQCKDSTGKCGPPPPIDNGDITSFPLSVYAPASSVEYQCQNLYQLEGNKRITCRNGQWSEPPKCLHPCVISREIMENYNIALRWTAKQKLYSRTGESVEFVCKRGYRLSSRSHTLRTTCWDGKLEYPTCAKR
notes: Bought (CompTech, A137); also called FL-FH; FLFH
- Kd [1]: 1.01 µM
- fold change of KD, mutant C3b against WT C3b [2]: 3.6 fold
- Kd [3]: 0.28 µM

B2: Inactive (S525A) Complement Factor I (protein)
chain: KVTYTSQEDLVEKKCLAKKYTHLSCDKVFCQPWQRCIEGTCVCKLPYQCPKNGTAVCATNRRSFPTYCQQKSLECLHPGTKFLNNGTCTAEGKFSVSLKHGNTDSEGIVEVKLVDQDKTMFICKSSWSMREANVACLDLGFQQGADTQRRFKLSDLSINSTECLHVHCRGLETSLAECTFTKRRTMGYQDFADVVCYTQKADSPMDDFFQCVNGKYISQMKACDGINDCGDQSDELCCKACQGKGFHCKSGVCIPSQYQCNGEVDCITGEDEVGCAGFASVTQEETEILTADMDAERRRIKSLLPKLSCGVKNRMHIRRKRIVGGKRAQLGDLPWQVAIKDASGITCGGIYIGGCWILTAAHCLRASKTHRYQIWTTVVDWIHPDLKRIVIEYVDRIIFHENYNAGTYQNDIALIEMKKDGNKKDCELPRSIPACVPWSPYLFQPNDTCIVSGWGREKDNERVFSLQWGEVKLISNCSKFYGNRFYEKEMECAGTYDGSIDACKGDAGGPLVCMDANNVTYVWGVVSWGENCGKPEFPGVYTKVANYFDWISYHVGRPFISQYNV
- cleavage of chip-bound C3b (SPR, convertase rebuilt before and after) [4]: Inactive (S525A) FI therefore demonstrated binding of the components of the AP regulatory TMC without cleaving the chip surface

B3: Complement Factor I with only an H380R mutation (protein)
chain: KVTYTSQEDLVEKKCLAKKYTHLSCDKVFCQPWQRCIEGTCVCKLPYQCPKNGTAVCATNRRSFPTYCQQKSLECLHPGTKFLNNGTCTAEGKFSVSLKHGNTDSEGIVEVKLVDQDKTMFICKSSWSMREANVACLDLGFQQGADTQRRFKLSDLSINSTECLHVHCRGLETSLAECTFTKRRTMGYQDFADVVCYTQKADSPMDDFFQCVNGKYISQMKACDGINDCGDQSDELCCKACQGKGFHCKSGVCIPSQYQCNGEVDCITGEDEVGCAGFASVTQEETEILTADMDAERRRIKSLLPKLSCGVKNRMHIRRKRIVGGKRAQLGDLPWQVAIKDASGITCGGIYIGGCWILTAARCLRASKTHRYQIWTTVVDWIHPDLKRIVIEYVDRIIFHENYNAGTYQNDIALIEMKKDGNKKDCELPRSIPACVPWSPYLFQPNDTCIVSGWGREKDNERVFSLQWGEVKLISNCSKFYGNRFYEKEMECAGTYDGSIDACKGDSGGPLVCMDANNVTYVWGVVSWGENCGKPEFPGVYTKVANYFDWISYHVGRPFISQYNV
- cleavage of chip-bound C3b (SPR) [4]: H380R FI appears to bind to WT FH1-4/C3b without cleaving the C3b coupled chip surface

B4: Y459S inactive (S525A) Complement Factor I (enzyme)
chain: KVTYTSQEDLVEKKCLAKKYTHLSCDKVFCQPWQRCIEGTCVCKLPYQCPKNGTAVCATNRRSFPTYCQQKSLECLHPGTKFLNNGTCTAEGKFSVSLKHGNTDSEGIVEVKLVDQDKTMFICKSSWSMREANVACLDLGFQQGADTQRRFKLSDLSINSTECLHVHCRGLETSLAECTFTKRRTMGYQDFADVVCYTQKADSPMDDFFQCVNGKYISQMKACDGINDCGDQSDELCCKACQGKGFHCKSGVCIPSQYQCNGEVDCITGEDEVGCAGFASVTQEETEILTADMDAERRRIKSLLPKLSCGVKNRMHIRRKRIVGGKRAQLGDLPWQVAIKDASGITCGGIYIGGCWILTAAHCLRASKTHRYQIWTTVVDWIHPDLKRIVIEYVDRIIFHENYNAGTYQNDIALIEMKKDGNKKDCELPRSIPACVPWSPSLFQPNDTCIVSGWGREKDNERVFSLQWGEVKLISNCSKFYGNRFYEKEMECAGTYDGSIDACKGDAGGPLVCMDANNVTYVWGVVSWGENCGKPEFPGVYTKVANYFDWISYHVGRPFISQYNV
notes: also called Y459S FI
- increase in response (RU) [5]: ~2 RU

B5: Complement Factor H CCP domains 19-20 (WT FH CCP19-20) (other, human, UniProt P08603 1107-1231, looked up)
chain: GKCGPPPPIDNGDITSFPLSVYAPASSVEYQCQNLYQLEGNKRITCRNGQWSEPPKCLHPCVISREIMENYNIALRWTAKQKLYSRTGESVEFVCKRGYRLSSRSHTLRTTCWDGKLEYPTCAKR
notes: domain: CCP19-20; also called FH19-20
- Kd [6]: 9.92 µM
- Kd [7]: ~358 µM

B6: Complement Factor I, wild type (active) (protein)
chain 1: KVTYTSQEDLVEKKCLAKKYTHLSCDKVFCQPWQRCIEGTCVCKLPYQCPKNGTAVCATNRRSFPTYCQQKSLECLHPGTKFLNNGTCTAEGKFSVSLKHGNTDSEGIVEVKLVDQDKTMFICKSSWSMREANVACLDLGFQQGADTQRRFKLSDLSINSTECLHVHCRGLETSLAECTFTKRRTMGYQDFADVVCYTQKADSPMDDFFQCVNGKYISQMKACDGINDCGDQSDELCCKACQGKGFHCKSGVCIPSQYQCNGEVDCITGEDEVGCAGFASVAQEETEILTADMDAERRRIKSLLPKLSCGVKNRMHI
chain 2: IVGGKRAQLGDLPWQVAIKDASGITCGGIYIGGCWILTAAHCLRASKTHRYQIWTTVVDWIHPDLKRIVIEYVDRIIFHENYNAGTYQNDIALIEMKKDGNKKDCELPRSIPACVPWSPYLFQPNDTCIVSGWGREKDNERVFSLQWGEVKLISNCSKFYGNRFYEKEMECAGTYDGSIDACKGDSGGPLVCMDANNVTYVWGVVSWGENCGKPEFPGVYTKVANYFDWISYHVGRPFISQYNV
- cleavage of chip-bound C3b to iC3b (SPR, 25° C.) [4]: the chip was shown to be degraded almost instantaneously after formation of a small amount of TMC (˜3 RU) and conversion of C3b to iC3b

B7: Recombinant Human Complement Factor H CCPs 1-4 (6x His-tagged), wild type (other)
chain: EKREAEAAGEQKLISEEDLEDCNELPPRRNTEILTGSWSDQTYPEGTQAIYKCRPGYRSLGNVIMVCRKGEWVALNPLRKCQKRPCGHPGDTPFGTFTLTGGNVFEYGVKAVYTCNEGYQLLGEINYRECDTDGWTNDIPICEVVKCLPVTAPENGKIVSSAMEPDREYHFGQAVRFVCNSGYKIEGDEEMHCSDDGFWSKEKPKCVEISCKSPDVINGSPISQKIIYKENERFQYKCNMGYEYSERGDAVCTESGWRPLPSCEHHHHHH
notes: Produced in-house; also called FH1-4; WT FH1-4
- Kd [8]: 9.2 µM
- Kd [9]: 8.1 µM
- Kd [10]: 8.09 µM
- Kd [11]: 10.1 µM
